{"source": "paper PMC2822742", "molecular_target": "RBPJκ in Raji cell extract (human (endogenous in Raji)) (UniProt Q06330)", "sequence (Q06330 whole entry)": "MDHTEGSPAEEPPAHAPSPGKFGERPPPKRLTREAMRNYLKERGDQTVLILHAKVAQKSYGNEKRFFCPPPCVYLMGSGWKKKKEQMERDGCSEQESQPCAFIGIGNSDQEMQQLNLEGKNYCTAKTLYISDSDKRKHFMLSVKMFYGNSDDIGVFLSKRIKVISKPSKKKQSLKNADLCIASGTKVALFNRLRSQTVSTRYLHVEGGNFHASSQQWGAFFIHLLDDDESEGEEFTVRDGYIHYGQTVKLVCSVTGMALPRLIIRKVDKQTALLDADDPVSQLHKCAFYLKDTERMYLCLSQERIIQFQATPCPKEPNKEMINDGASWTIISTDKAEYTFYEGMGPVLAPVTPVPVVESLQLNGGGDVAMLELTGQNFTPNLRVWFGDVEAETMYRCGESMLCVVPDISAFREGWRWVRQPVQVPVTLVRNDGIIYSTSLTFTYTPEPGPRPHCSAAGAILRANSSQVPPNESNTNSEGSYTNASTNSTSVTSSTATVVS", "assay": "native gel or EMSA", "data": [{"substance": "EBNA2 in Raji cell extract (from UniProt P12978 1-487) (natural protein)", "values": [{"measurement": "decrease in EMSA signal intensity, AdOx-treated against untreated extract", "result": "30 to 67", "unit": "%"}]}]}
